{
  "source": "patent US8889130B2",
  "about": "“Treatment of osteoarthritis and pain” (Abbvie Inc., priority 2011, dated 2014)",
  "key": {"[1]": {"system": "male DBA-1 mice", "assay": "Collagen-induced arthritis mouse model (rheumatoid arthritis)", "assay_type": "in vivo", "conditions": "therapeutic mode; 1-3 mg/kg intraperitoneally every other day after disease onset", "experimental": "The therapeutic effects of anti-IL-1α, anti-IL-1β, combined anti-IL-1α/anti-IL-1β, and murine IL-1α/β DVD4-Ig, were evaluated in a collagen-induced arthritis mouse model well known in the art. Briefly, male DBA-1 mice were immunized with bovine type II collagen in CFA at the base of the tail. The mice were boosted with Zymosan intraperitoneally (i.p) at day 21. After disease onset at day 24-27, mice were selected and divided into separate groups of 10 mice each. […] To neutralize IL-1, mice were injected every other day with 1-3 mg/kg of anti-IL-1α mAb, anti-IL-1βmAb, combination of anti-IL-1α and anti-IL-1β mAbs, or murine IL-1α/β DVD4-Ig intraperitoneally. Mice were carefully examined three times a week for the visual appearance of arthritis in peripheral joints, and scores for disease activity determined."}, "[2]": {"system": "zymosan-induced IL-6 production", "assay": "Zymosan-induced IL-6 production in joint instability model study", "assay_type": "in vivo, mouse", "conditions": "day 21 of JIM; 50 mg/kg zymosan ip, serum 4 hours later; mAbs 6 mg/kg each; DVD-Ig 6 or 12 mg/kg", "experimental": "As a pharmacodynamic readout to determine if anti-IL-1α and anti-IL-1β monoclonal antibodies as well as mIL-1α/β DVD-Ig binding protein were functional and capable of neutralizing IL-1α and IL-1β in vivo, zymosan-induced (IL-1α and IL-1β dependent) production of interleukin 6 (IL-6) was measured in a joint instability model study of OA.\nBriefly, on day 21 in the model, zymosan was suspended in PBS vehicle and placed in boiling water for half an hour, then allowed to cool before using. The mice were then injected ip with 50 mg/kg zymosan in suspension (mixed well before injection) in 0.5 ml PBS. The mice were then bled 4 hours after zymosan injection. Serum was collected for IL-6 measurements."}, "[3]": {"system": "male Swiss Webster mice", "assay": "Joint instability model (JIM) of osteoarthritis, cartilage degeneration histology", "assay_type": "in vivo, mouse", "experimental": "The design of study of the in vivo activity of a mIL-1α/β DVD-Ig molecule in the joint instability model (JIM) of osteoarthritis in mice is shown in Table 19. All groups contained 25 mice (n=25), weighing approximately 30 grams (BW=30 g). The study was terminated after 21 days. Two and a half month old, male Swiss Webster mice (25/group/time point), housed 5/cage, were anesthetized with isoflurane anesthesia. Anterior cruciate ligament (ACL) trauma was administered on the right and left knees on day 0 in an attempt to induce OA lesions. Intraperitoneal (ip) treatments with IL-1 inhibitory antibodies IL-1α (9H10) and IL-1β (10G11), alone and in combination, were initiated the day of ACL trauma and continued every 4th day (q4d) for 20 days. The vehicle for the non-treatment control was PBS. Right and left knees were harvested on day 21, and histopathologic alterations were scored and characterized. Data were analyzed using only joints that had proliferative responses indicative of successful instability induction. The proliferative response/instability was scored 0-3, and only unstable joints (scores of 1, 2, or 3) were used in the final analysis. Medial and lateral femoral and tibial cartilage degeneration was scored for severity of cartilage degeneration on a scale 0-5. Four days after the last antibody dose, blood was drawn from all animals from each group for serum harvest. Body weights were recorded weekly. […]\nFollowing 2-3 days in a decalcifying fixative (Surgipath Decalifier, Surgipath Medical Ind., Inc., Richmond Va.), both knee joints were trimmed of extraneous tissue, embedded in the frontal plane and sectioned. […] Slides were examined by a board-certified veterinary pathologist blinded to study group designation, and were scored according to the method below. […]\nMedial and lateral femoral and tibial cartilage degeneration were scored for severity of cartilage degeneration using the following system: Depth/extent of chondrocyte and proteoglycan loss with fibrillation: […]\nThe design of this study was similar to that described above in Example 3.3.1. […] Body weights were recorded weekly. […]"}, "[4]": {"system": "Male SV129 mice", "assay": "Destabilization of medial meniscus (DMM) model of osteoarthritis, cartilage degeneration (Chambers scores)", "assay_type": "in vivo, mouse", "conditions": "for mean sum Chambers scores and mean maximum Chambers scores (cartilage degeneration): Example 3.3.6 (FIG. 7)", "from_the_text": "(§1) Male SV129 mice weighing approximately 30 grams, housed 5/cage, were anesthetized on Day 0 with ketamine/xylazine cocktail, administered intraperitoneally (ip), and then the medial collateral ligament was exposed by blunt dissection, and transected to reflect the meniscus toward the femur. The joint space was closed with 8-0 vicryl suture. The skin was closed with wound glue. For sham surgeries, a vertical skin incision was made over the medial aspect of the knee and the joint capsule was opened. The capsule was closed with 8-0 vicryl suture and the skin was closed with wound glue. Groups of animals were then treated with intraperitoneal (ip) injections of antibody or vehicle according to the study design table below. Two sex-matched, age-matched, and strain-matched naïve mice were also included in the study. Animals were euthanized after 8 weeks of treatment, and knee joints were harvested in 10% neutral buffered formalin.\nFormalin-fixed samples were decalcified, and specimens were sectioned in the frontal plane into 15 step sections each. Each section was approximately 6 μm thick, and step sections were separated by 70 μm. All slides were stained with toluidine blue (T. Blue). Slides were assessed according to the Chambers method (Chambers et al. (2001) Arthritis Rheum 44:1455-65) for cartilage degeneration (see below) by a board-certified veterinary pathologist. Each of the four cartilage surfaces, the medial femoral condyle (MFC), the medial tibial plateau (MTP), the lateral femoral condyle (LFC), and the lateral tibial plateau (LTP), was scored from 0-6 according to the scale in the table below.\nas §1, with “8-0 vicryl suture, and the” for “8-0 vicryl suture and the”, “injections of anti-mIL-1α monoclonal antibody, anti-mIL-1β (alone or in combination), mIL-1α/βDVD-Ig binding protein, or vehicle” for “injections of antibody or vehicle”, “design table below (Table 24). Animals were” for “design table below. Two sex-matched, age-matched, and strain-matched naïve mice were also included in the study. Animals were”, “weeks of treatment and knee” for “weeks of treatment, and knee”\nMale SV129 mice weighing approximately 30 grams had the medial collateral ligament exposed by blunt dissection, and transected to reflect the meniscus toward the femur. The joint space was closed with 8-0 vicryl suture. The skin was closed with wound glue. For sham surgeries, a vertical skin incision was made over the medial aspect of the knee and the joint capsule was opened. The capsule was closed with 8-0 vicryl suture, and the skin was closed with wound glue. Groups of animals were then treated per os (po) or via intraperitoneal (ip) injections of vehicle or treatments according to the study design table below. Three sex-matched, age-matched, and strain-matched naïve mice were also included in the study. Animals were euthanized after 4 weeks of treatment, and knee joints were harvested in 10% neutral buffered formalin."}},
  "data": [
    {"molecule": "mIL-1α/βDVD-Ig: mouse anti-mouse DVD-Ig, V(anti-mIL-1β 10G11)-linker-V(anti-mIL-1α 9H10)-murine constant region (Cγ2a and Cκ) (antibody) heavy: EVQLQQSGPELVKPGTSVKMSCKTSGYTFTSYVMHWVKQKPGQGLEWIGYIIPYNDNTKYNEKFKGKATLTSDKSSSTAYMELSSLTSEDSAVYYCARRNEYYGSSFFDYWGQGTTLTVSSAKTTAPSVYPLAPQVILKESGPGILQPSQTLSLTCSFSGFSLSTYGTAVNWIRQPSGKGLEWLAQIGSDDRKLYNPFLKSRITLSEDTSNSQVFLKITSVDTEDSATYYCANGVMEYWGLGTSVTVSSAKTTAPSVYPLAPVCGDTTGSSVTLGCLVKGYFPEPVTLTWNSGSLSSGVHTFPAVLQSDLYTLSSSVTVTSSTWPSQSITCNVAHPASSTKVDKKIEPRGPTIKPCPPCKCPAPNLLGGPSVFIFPPKIKDVLMISLSPIVTCVVVDVSEDDPDVQISWFVNNVEVHTAQTQTHREDYNSTLRVVSALPIQHQDWMSGKEFKCKVNNKDLPAPIERTISKPKGSVRAPQVYVLPPPEEEMTKKQVTLTCMVTDFMPEDIYVEWTNNGKTELNYKNTEPVLDSDGSYFMYSKLRVEKKNWVERNSYSCSVVHEGLHNHHTTKSFSRTPGK light: DIQMTQSPASLSASVGETVTITCRGSGILHNYLVWYQQKQGKSPQLLVYSAKILADGVPSRFSGSGSGTQYSLKINSLQPEDFGSYYCQHFWSTPFTFGSGTKLEIKRADAAPTVSIFPPSIVMTQTPKFLLVSAGDRVTITCKASQSVNHDVAWYQQMPGQSPKLLIYFASNRYTGVPDRFTGSGYGTDFTFTISTVQAEDLAVYFCQQDYSSPYTFGGGTKLEIKRADAAPTVSIFPPSSEQLTSGGASVVCFLNNFYPKDINVKWKIDGSERQNGVLNSWTDQDSKDSTYSMSSTLTLTKDEYERHNSYTCEATHKTSTSPIVKSFNRNEC", "values": [
      {"measurement": "reduction in mean arthritis score compared to control group", "setting": "[1]", "result": 47, "unit": "%"},
      {"measurement": "zymosan-induced IL-6 production", "setting": "[2]", "result": "significantly neutralized zymosan-induced IL-6 production"},
      {"measurement": "cartilage degeneration", "setting": "[3]; 3 mg/kg DVD-Ig binding protein", "result": "had not effect on cartilage degeneration"},
      {"measurement": "progression of osteoarthritis (cartilage degeneration scores, histopathological parameters)", "setting": "[3]; Example 3.3.2 (FIG. 3), DVD-Ig 6 or 12 mg/kg ip three times weekly, mAbs 6 mg/kg each Q4D, day 21", "result": "significantly inhibited the progression of osteoarthritis"},
      {"measurement": "cartilage degeneration (total sum score)", "setting": "[4]; Example 3.3.5 (FIG. 6), 8 weeks of treatment ip, 6 mg/kg", "result": "significantly reduced cartilage degeneration"},
      {"measurement": "mean sum Chambers scores and mean maximum Chambers scores (cartilage degeneration)", "setting": "[4]; 8 weeks, DVD-Ig at 1.5 mg/kg (excepted from the significant reduction)", "result": "except for IL-1α/β DVD at 1.5 mg/kg"},
      {"measurement": "mean sum Chambers scores and mean maximum Chambers scores (cartilage degeneration)", "setting": "[4]; 8 weeks, DVD-Ig at 3 and 6 mg/kg", "result": "significantly reduced"},
      {"measurement": "dose effect for mean sum Chambers scores", "setting": "[4]; Example 3.3.6, 8 weeks, DVD-Ig 1.5, 3, 6 mg/kg", "result": "statistically significant dose effect"}
    ]}
  ]
}
